Patent publication US20240116985A1 (published 2024)
Starred links: 1 amine or outer side, 2 acyl side, 3 side chain; linkers in the order of their positions; H or OH if unused. Positions of bridges follow the written chain, without caps; N, C: chain ends. Non-standard residues stand in square brackets, D forms with d. Primed or numbered codes have the meaning given here. PyrS2″ = (S)-3-amino-1-((pent-4-en-1-yloxy)carbonyl)pyrrolidine-3-carboxylic acid (stapling residue), C=CCCCOC(=O)N1CC[C@@](N[*:1])(C(=O)[*:2])C1; B5(4) = 2,2-bis(4-pentenyl)glycine = 2-amino-2-(pent-4-en-1-yl)hept-6-enoic acid (stitching residue), C=CCCCC(CCCC=C)(N[*:1])C(=O)[*:2]; B5(5) = 2,2-bis(4-pentenyl)glycine, 2-amino-2-(pent-4-en-1-yl)hept-6-enoic acid (stitching residue), C=CCCCC(CCCC=C)(N[*:1])C(=O)[*:2]; (NMe2)GlnR(3) = [NMe2]GlnR, N5,N5-dimethyl-L-glutamine, CN(C)C(=O)CC[C@H](N[*:1])C(=O)[*:2]; AcLys″ = N6-acetyl-lysine, CC(=O)NCCCC[C@H](N[*:1])C(=O)[*:2]; Phe(3-COOH) = N[C@@H](Cc1cccc(C(=O)O)c1)C(=O)O; 2F3MeF = Cc1cccc(C[C@H](N[*:1])C(=O)[*:2])c1F; Phe(2-CF3) = N[C@@H](Cc1ccccc1C(F)(F)F)C(=O)O; AcLys = CC(=O)NCCCC[C@H](N[*:1])C(=O)[*:2]; Bta = N[C@@H](Cc1csc2ccccc12)C(=O)O; αAllylPro = C=CC[C@@]1(C(=O)O)CCCN1; tBuAla = CC(C)(C)C[C@H](N)C(=O)O; 3Thi = N[C@@H](Cc1ccsc1)C(=O)O; S8 = C=CCCCCCC[C@](C)(N)C(=O)O; Nle = CCCC[C@H](N)C(=O)O; Aib = CC(C)(N)C(=O)O

T1: B-cat-Halo (UniProt P35222 1-781, HaloTag NanoBRET 618 Ligand bound in the assay)
T1 sequence (looked up): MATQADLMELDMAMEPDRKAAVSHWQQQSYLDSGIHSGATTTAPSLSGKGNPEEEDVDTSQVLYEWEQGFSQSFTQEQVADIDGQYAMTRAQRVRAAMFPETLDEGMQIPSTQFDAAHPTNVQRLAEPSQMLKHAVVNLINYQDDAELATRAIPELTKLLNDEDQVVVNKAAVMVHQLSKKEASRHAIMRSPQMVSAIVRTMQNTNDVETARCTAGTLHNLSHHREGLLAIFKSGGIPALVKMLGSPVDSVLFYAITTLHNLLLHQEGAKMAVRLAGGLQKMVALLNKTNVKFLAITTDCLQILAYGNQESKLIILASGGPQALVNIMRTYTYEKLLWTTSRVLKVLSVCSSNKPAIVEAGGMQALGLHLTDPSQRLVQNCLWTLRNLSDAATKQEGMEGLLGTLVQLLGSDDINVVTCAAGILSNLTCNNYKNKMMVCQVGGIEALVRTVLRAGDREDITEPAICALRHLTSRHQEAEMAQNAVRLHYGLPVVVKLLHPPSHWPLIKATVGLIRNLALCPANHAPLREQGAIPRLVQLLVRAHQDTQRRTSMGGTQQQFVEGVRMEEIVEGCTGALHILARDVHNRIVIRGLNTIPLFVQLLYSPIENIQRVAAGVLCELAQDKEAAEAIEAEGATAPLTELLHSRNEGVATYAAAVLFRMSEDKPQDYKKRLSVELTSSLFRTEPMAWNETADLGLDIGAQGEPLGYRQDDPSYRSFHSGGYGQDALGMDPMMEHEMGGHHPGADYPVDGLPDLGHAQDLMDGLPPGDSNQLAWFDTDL

T2: full-length beta-Catenin (Uniprot ID P35222) (Homo sapiens (Human), UniProt P35222 1-781)
T2 construct: also called bCat; B-Catenin
T2 sequence: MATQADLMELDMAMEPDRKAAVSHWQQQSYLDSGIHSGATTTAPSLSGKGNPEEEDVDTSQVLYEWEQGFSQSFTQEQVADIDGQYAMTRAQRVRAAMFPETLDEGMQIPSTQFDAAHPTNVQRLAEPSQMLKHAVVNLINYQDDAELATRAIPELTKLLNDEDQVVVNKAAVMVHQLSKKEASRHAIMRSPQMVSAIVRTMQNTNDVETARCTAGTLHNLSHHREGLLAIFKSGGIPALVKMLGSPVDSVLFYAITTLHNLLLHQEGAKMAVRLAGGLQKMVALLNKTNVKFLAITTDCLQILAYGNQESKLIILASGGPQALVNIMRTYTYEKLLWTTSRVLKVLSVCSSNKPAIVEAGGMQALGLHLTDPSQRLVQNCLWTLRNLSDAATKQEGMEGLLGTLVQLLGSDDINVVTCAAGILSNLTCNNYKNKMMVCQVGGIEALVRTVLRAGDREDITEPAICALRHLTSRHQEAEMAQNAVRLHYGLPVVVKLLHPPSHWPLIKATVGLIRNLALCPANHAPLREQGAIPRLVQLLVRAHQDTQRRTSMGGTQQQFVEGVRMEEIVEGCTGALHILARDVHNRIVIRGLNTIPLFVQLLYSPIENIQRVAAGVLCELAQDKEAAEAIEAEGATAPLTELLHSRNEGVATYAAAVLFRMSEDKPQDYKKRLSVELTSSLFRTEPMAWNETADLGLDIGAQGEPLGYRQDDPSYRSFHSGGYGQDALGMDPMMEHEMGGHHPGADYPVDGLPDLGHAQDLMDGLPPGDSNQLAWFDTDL


target: T1, B-cat-Halo; assay: cell-based or functional assay

Binder | NanoBRET Abs IC50 [µM]
Ac-[αAllylPro]D[tBuAla][B5(4)]D[Phe(3-COOH)]AAF[MorphGln][PyrS2″][2F3MeF][Bta][MorphGln]-NH2 (staple 1-4, 4-11; not fully specified; printed as Ac-PL3-Asp-Npg-B5-Asp-3COOHF-Ala-Ala-Phe-MorphGln-PyrS2-2F3MeF-BztA-MorphGln-NH2) [I-2547] | 3.5
Ac-[αAllylPro]D[tBuAla][B5(4)]D[Phe(3-COOH)]AAF[AcLys″][PyrS2″][Phe(2-CF3)][Bta][Me2Gln]-NH2 (staple 1-4, 4-11; not fully specified; printed as Ac-PL3-Asp-Npg-B5-Asp-3COOHF-Ala-Ala-Phe-AcLys-PyrS2-2F3MeF-BztA-Me2Gln-NH2) [I-2540] | 3.5
Ac-[αAllylPro]D[tBuAla][B5(4)]D[Phe(3-COOH)]AAF[Nle][PyrS2″][Phe(2-CF3)][Bta][MorphGln]-NH2 (staple 1-4, 4-11) [I-2542] | 4
Ac-[αAllylPro]D[tBuAla][B5(4)]D[Phe(3-COOH)]AAF[MorphGln][PyrS2″][Phe(2-CF3)][Bta][Me2Gln]-NH2 (staple 1-4, 4-11; not fully specified; printed as Ac-PL3-Asp-Npg-B5-Asp-3COOHF-Ala-Ala-Phe-MorphGln-PyrS2-2F3MeF-BztA-Me2Gln-NH2) [I-2538] | 3.5
Ac-[αAllylPro]D[tBuAla][B5(4)]D[Phe(3-COOH)]AAF[AcLys][PyrS2″][2F3MeF][Bta][Me2Gln]-NH2 (staple 1-4, 4-11; not fully specified; printed as Ac-PL3-Asp-Npg-B5-Asp-3COOHF-Ala-Ala-Phe-AcLys-PyrS2-2F3MeF-BztA-Me2Gln-NH2) [I-2539] | 3.6
Ac-[αAllylPro]D[tBuAla][B5(4)]D[Phe(3-COOH)]AAF[Me2Gln][PyrS2″][2F3MeF][Bta][MorphGln]-NH2 (staple 1-4, 4-11; not fully specified; printed as Ac-PL3-Asp-Npg-B5-Asp-3COOHF-Ala-Ala-Phe-Me2Gln-PyrS2-2F3MeF-BztA-MorphGln-NH2) [I-2544] | 4.1
Ac-[αAllylPro]D[tBuAla][B5(4)]D[Phe(3-COOH)][Aib]AF[Nle][PyrS2″][3Thi][Bta][(NMe2)GlnR(3)]-NH2 (staple 1-4, 4-11) [I-2551] | 9.8
Ac-[αAllylPro]D[tBuAla][B5(4)]D[Phe(3-COOH)]AAF[MorphGln][PyrS2″][2F3MeF][Bta][Me2Gln]-NH2 (staple 1-4, 4-11; not fully specified; printed as Ac-PL3-Asp-Npg-B5-Asp-3COOHF-Ala-Ala-Phe-MorphGln-PyrS2-2F3MeF-BztA-Me2Gln-NH2) [I-2537] | 2.9
Ac-[αAllylPro]D[tBuAla][B5(4)]D[Phe(3-COOH)]AAF[Me2Gln][PyrS2″][Phe(2-CF3)][Bta][MorphGln]-NH2 (staple 1-4, 4-11; not fully specified; printed as Ac-PL3-Asp-Npg-B5-Asp-3COOHF-Ala-Ala-Phe-Me2Gln-PyrS2-2F3MeF-BztA-MorphGln-NH2) [I-2545] | 4
Ac-[αAllylPro]D[tBuAla][B5(4)]D[Phe(3-COOH)]AAFF[PyrS2″][Phe(2-CF3)][Bta][MorphGln]-NH2 (staple 1-4, 4-11) [I-2543] | 7.3
Ac-[αAllylPro]D[tBuAla][B5(4)]D[Phe(3-COOH)]AAF[AcLys][PyrS2″][2F3MeF][Bta][MorphGln]-NH2 (staple 1-4, 4-11; not fully specified; printed as Ac-PL3-Asp-Npg-B5-Asp-3COOHF-Ala-Ala-Phe-AcLys-PyrS2-2F3MeF-BztA-MorphGln-NH2) [I-2548] | 3.6
Ac-[αAllylPro]D[tBuAla][B5(4)]D[Phe(3-COOH)]AAF[MorphGln][PyrS2″][2F3MeF][Bta][MorphGln]-NH2 (staple 1-4, 4-11; not fully specified; printed as Ac-PL3-Asp-Npg-B5-Asp-3COOHF-Ala-Ala-Phe-MorphGln-PyrS2-2F3MeF-BztA-MorphGln-NH2) [I-2546] | 3.5
Ac-[αAllylPro]D[tBuAla][B5(4)]D[Phe(3-COOH)][Aib]AF[Nle][PyrS2″][3Thi][Bta][(NHEt)GlnR]-NH2 (staple 1-4, 4-11) [I-2552] | 10.4
Ac-[αAllylPro]D[tBuAla][B5(4)]D[Phe(3-COOH)]AAFL[PyrS2″][Phe(2-CF3)][Bta][MorphGln]-NH2 (staple 1-4, 4-11) [I-2541] | 4.7
Ac-[αAllylPro]D[tBuAla][B5(4)]D[Phe(3-COOH)]AAF[AcLys][PyrS2″][2F3MeF][Bta][MorphGln]-NH2 (staple 1-4, 4-11; not fully specified; printed as Ac-PL3-Asp-Npg-B5-Asp-3COOHF-Ala-Ala-Phe-AcLys-PyrS2-2F3MeF-BztA-MorphGln-NH2) [I-2549] | 2.5

target: T2, full-length beta-Catenin (Uniprot ID …); assay: fluorescence polarization competition; full-length beta-catenin with 5FAM-labeled TCF4 residues 10-53 probe as competitor
Description: The plate was incubated protected from light for 60 minutes at 20° C. prior to read. Reads were performed on a CLARIOstar plate reader (BMG Labtech) in duplicate, and data were fitted to a 1:1 binding model with hill slope using an in-house script. All provided concentrations are final concentrations.

Binder | IC50 [µM]
XDIXDDAAFNXFXQ (not fully specified; N-terminal Ac; PL3 at 1; B5 at 4; S8 at 11; 2OMeF at 12; BztA at 13; C-terminal NH2; staples PL3(1)-B5(4) and B5(4)-S8(11) by olefin metathesis, It has the same description as I-550 and is the earlier eluting HPLC peak (staple isomer composition)) [I-549] | 0.071
XDLXDDAAFQXFXH (not fully specified; N-terminal Ac; PL3 at 1; B5 at 4; S8 at 11; BztA at 13; C-terminal NH2; staples PL3(1)-B5(4) and B5(4)-S8(11) by olefin metathesis, It has the same description as I-560 and is the later eluting HPLC peak (staple isomer composition)) [I-561] | 0.034
XDLXDDAAFQXFXQ (not fully specified; N-terminal Ac; PL3 at 1; B5 at 4; S8 at 11; BztA at 13; C-terminal NH2; staples PL3(1)-B5(4) and B5(4)-S8(11) by olefin metathesis, It has the same description as I-558 and is the later eluting HPLC peak (staple isomer composition)) [I-559] | 0.043
XDIXDDAAFNXFXH (not fully specified; N-terminal Ac; PL3 at 1; B5 at 4; S8 at 11; 2OMeF at 12; BztA at 13; C-terminal NH2; staples PL3(1)-B5(4) and B5(4)-S8(11) by olefin metathesis) [I-554] | 0.0275
XDLXDDAAFQXFXQ (not fully specified; N-terminal Ac; PL3 at 1; B5 at 4; S8 at 11; BztA at 13; C-terminal NH2; staples PL3(1)-B5(4) and B5(4)-S8(11) by olefin metathesis) [I-558] | 0.056
XDIXDDAAFNXFXH (not fully specified; N-terminal Ac; PL3 at 1; B5 at 4; S8 at 11; 2OMeF at 12; BztA at 13; C-terminal NH2; staples PL3(1)-B5(4) and B5(4)-S8(11) by olefin metathesis, It has the same description as I-554 and is the earlier eluting HPLC peak (staple isomer composition)) [I-553] | 0.061
Ac-[αAllylPro]DL[B5(5)]DDAAFN[S8]F[Bta]Q-NH2 (staple 1-4, 4-11) [I-562] | 0.051
Ac-[αAllylPro]DL[B5(5)]DDAAFQ[S8]F[Bta]H-NH2 (staple 1-4, 4-11) [I-560] | 0.081
